Measurements from PMC5984089, “FBXW7 regulates DISC1 stability via the ubiquitin-proteosome system” (Molecular Psychiatry, 2017).
Where “and” joins values, the source holds several entries; their conditions need not be identical. Equal values may be shown once. Non-standard residues stand in square brackets, D forms with d. Residues, ends and D or L forms follow the SMILES beside them. No end group written: not given here. pT = C[C@@H](OP(=O)(O)O)[C@H](N)C(=O)O; pS = N[C@@H](COP(=O)(O)O)C(=O)O

Key:
Skp1-FBXW7 complex = molecular target: T1, Skp1-FBXW7 complex (Homo sapiens, UniProt Q969H0); assay: Isothermal titration calorimetry of DISC1 peptides; format: binding; settings: for Kd: NANO ITC, 20 mM HEPES-Na (pH 7.4), 200 mM NaCl, 2 mM β-mercaptoethanol, mean ± s.d. from two to three independent measurements, read-out: dissociation constant (KD)
T1 construct: human FBXW7 (residues 263–707); His6 (N, cleaved yes); made in house; host or cells: Escherichia coli
Protocol: Amino-terminal His6 tagged human FBXW7 (residues 263–707) and truncated Skp1 (Schulman et al., 2000) were co-expressed as a dicistronic message in Escherichia coli. The Skp1-FBXW7 complexes were purified by Ni2+-nitrilotriacetic acid (NTA) affinity chromatography followed by tobacco eth virus (TEV) protease cleavage of the His6 tag, and by anion exchange and gel filtration chromatography. For crystallization, the Skp1-FBXW7 complex was concentrated to 48 mg ml^–1 by ultrafiltration in 20 mM HEPES-Na (pH 7.4), 200 mM NaCl and 5 mM dithiothreitol (DTT). The DISC1 peptides were synthesized chemically and purified by HPLC.
All measurements were performed at 25 °C with a NANO ITC System (TA Instruments, New Castle, DE, USA). Protein samples were dialyzed against a solution containing 20 mM HEPES-Na (pH 7.4), 200 mM NaCl, and 2 mM β-mercaptoethanol. Typically, the concentrations of Skp1-FBXW7 and DISC1 peptides were […] and 1 mM, respectively. Titration data were analyzed using the TA Nano Analyze software, and the reported dissociation constants and their standard deviations were derived from two to three independent measurements.
To test whether phosphorylation of both the Thr198 and Ser202 sites in DISC1 is required for binding to FBXW7, we used isothermal titration calorimetry (ITC) to measure the binding affinity of various phosphorylated DISC1 peptides to the Skp1-FBXW7 complex (Supplementary Figure 5). […] Thus, specific interaction of DISC1 with the Skp1-FBXW7 complex requires simultaneous phosphorylation at Thr198 and Ser202 within the DISC1 PD motif.

DISC1, HEK293 cells = assay: Endogenous DISC1 protein level in HEK293 cells, western blot; format: cell-based, human; settings: cycloheximide 50 μg ml^–1, Figure 1a, n=3
Protocol: HEK293 cells were sourced from ATCC (CRL-1573) and cultured as described in the manufacturer’s protocol. DMEM (SIGMA) supplemented with 10% fetal bovine serum, 2 mM L-glutamine, […] penicillin-streptomycin at 37 °C in a humidified atmosphere of 5% CO2. The cells were passaged at about 80% confluency. Cells were transfected with plasmid DNA using polyfect transfection reagent (Qiagen) according to the manufacturer’s instructions. HEK293 cells were treated with the pharmacological agents cycloheximide (C7698) and MG132 (M7449) (Sigma-Aldrich) or DISC1 disruptor peptides (custom synthesized by Severn Biotech) as described in the text.
Briefly, detergent-soluble proteins were isolated from cells by disruption in lysis buffer 20 mM Tris-HCl (pH 7.5), 150 mM NaCl, 1 mM Na2EDTA, 1 mM EGTA, 1% triton, 2.5 mM sodium pyrophosphate, 1 mM β-glycerophosphate, 1 mM Na3VO4, 1 μg ml^–1 leupeptin, 10 mM DTT with Roche protease inhibitor, phosSTOP (Roche, 04906837001). Detergent-insoluble proteins were removed by centrifugation at 10 000 g for 10 min, and the soluble fraction was retained. Cell lysates were adjusted to equal protein amount (1 μg μl^–1) using cell lysis buffer. Cell lysates normalized for the protein concentration were incubated with mouse IgG (Millipore, 12487) Protein A agarose beads for 2 h at 4 °C. […] The complexes were analyzed on SDS PAGE. […]

[1] = molecular target: purified protein complex containing 6His-FBXW7 and Skp1, Q969H0;P63208; assay: peptide array overlay, anti-6His detection, densitometry; settings: read off a plot
[2] = tested on: purified protein complex containing 6His-FBXW7 and Skp1; assay: Peptide array overlay with 6His-FBXW7/Skp1, substitution and truncation analysis; format: binding, human; settings: for binding potential for the FBXW7 complex vs dually-phosphorylated control sequence: densitometry of 6His probe
From the text: Peptide libraries were produced by automatic SPOT synthesis and synthesized on continuous cellulose membrane supports on Whatman 50 cellulose membranes using Fmoc-chemistry with the AutoSpot-Robot ASS 222 (Intavis Bioanalytical Instruments, Köln, Germany) as previously described.[17] Phosphorylation of peptide array peptides by constitutively active GSK3 (14-306, Millipore UK) was undertaken as previously described.[18] Phosphorylation was detected using a phospho-serine specific antibody (ab9332, Abcam, UK).
Figure 2 FBXW7 binds DISC1 via a PD motif to regulate turnover of DISC1. (a) HEK293 cells were transfected with FLAG-tagged FBXW7 or FLAG-tagged FBXW7 without the F-Box substrate-binding domain (Δ-F). Lysates were prepared and blotted for DISC1, c-MYC, FLAG and GAPDH. Relative levels of DISC1 expression were calculated (right hand panel). *=P<0.05 as measured by Student’s t-test, n=3 (b) HEK293 cells were transfected with FLAG-FBXW7 and GFP-DISC1 (upper panels) or FLAG-FBXW7 and V5-DISC1 (lower panels). FLAG was immunoprecipitated from cell lysates and blotted for FLAG, GFP and V5. (c) HEK293 cells were transfected with FLAG-DISC1. FLAG was immunoprecipitated from cell lysates and blotted for FLAG and endogenous FBXW7. (d) and (e) Peptide arrays of sequences containing the DISC1 PD were overlayed with a purified protein complex containing 6His-FBXW7 and Skp1. Arrays were then probed for His tag. (f) Sequences of known FBXW7 substrates contain a PD that is also present in DISC1.
Figure 3 Substitution analysis pinpoints novel binding motifs for FBXW7. (a) Peptide array grids containing substitution of residues within the core binding motif domain ^197PTPPGSH^202 (with a range of native and non-native residues) were overlaid with a purified protein complex containing 6His-FBXW7 and Skp1. mD and mE are N-methyl aspartic acid and N-methyl glutamic acids respectively. (d) and (e) are the D-forms of aspartic acid and glutamic acid. (b) Arrays were then probed for 6His and spots that were over 200% of the control identified by densitometry.

[3] = molecular target: T2, human FBXW7 (residues 263-707) (human, UniProt Q969H0 263-707); assay: crystal structure; Skp1-FBXW7 mixed with a twofold molar excess of the DISC1 peptide; crystallised from 100 mM HEPES-Na (pH 7.4), 1.2 M Li2SO4, hanging drop, 4 °C; one complex in the asymmetric unit; settings: both partners purified
T2 construct: human FBXW7, residues 263-707; The FBXW7 chain of m1, written alone for the pairs inside the crystal structure; also called Fbw7; source: E. coli, co-expressed with truncated Skp1, purified as the complex; not shown: His6, N-terminal, cleaved

[4] = molecular target: Skp1-FBXW7 complex (human FBXW7 residues 263-707 with truncated Skp1, His6 tag cleaved) (UniProt Q969H0); assay: ITC; 25 °C, NANO ITC System; 20 mM HEPES-Na (pH 7.4), 200 mM NaCl, 2 mM β-mercaptoethanol; Skp1-FBXW7 and DISC1 peptides typically 50 mM and 1 mM (so in the source); two to three independent measurements
[5] = ITC, 25 °C, pH 7.4, singly phosphorylated peptides

T1 sequence (Q969H0 263-707, one chain of several): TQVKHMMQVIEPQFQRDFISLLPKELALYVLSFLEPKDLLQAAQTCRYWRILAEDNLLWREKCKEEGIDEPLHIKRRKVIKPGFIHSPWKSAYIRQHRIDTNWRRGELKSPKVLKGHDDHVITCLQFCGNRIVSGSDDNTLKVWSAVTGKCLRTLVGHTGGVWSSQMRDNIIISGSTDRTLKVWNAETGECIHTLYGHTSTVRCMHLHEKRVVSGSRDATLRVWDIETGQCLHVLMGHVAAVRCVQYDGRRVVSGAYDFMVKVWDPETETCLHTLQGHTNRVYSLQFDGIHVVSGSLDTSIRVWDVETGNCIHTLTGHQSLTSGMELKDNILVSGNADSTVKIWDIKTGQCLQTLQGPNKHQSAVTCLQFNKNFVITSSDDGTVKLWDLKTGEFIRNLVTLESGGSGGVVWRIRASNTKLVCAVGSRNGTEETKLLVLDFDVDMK
T2 sequence (Q969H0 263-707): as the sequence (Q969H0 263-707, one chain of several) above

## CC(C)[C@H](NC(=O)[C@H](CCC(=O)O)NC(=O)[C@@H]1CCCN1)C(=O)N1CCC[C@H]1C(=O)N1CCC[C@H]1C(=O)N[C@H](C(=O)N1CCC[C@H]1C(=O)N1CCC[C@H]1C(=O)NCC(=O)N[C@@H](COP(=O)(O)O)C(=O)N[C@@H](Cc1c[nH]cn1)C(=O)N[C@@H](CO)C(=O)N[C@@H](C)C(=O)N[C@@H](Cc1ccccc1)C(=O)N[C@H](C(=O)O)[C@@H](C)O)[C@@H](C)OP(=O)(O)O [DISC1^193–207/pT198/pS202] (H-PEVPP[pT]PPG[pS]HSAFT-OH)
Skp1-FBXW7 complex; ITC, 25 °C
  Kd: 1 ± 0.2 µM

## C[C@@H](OP(=O)(O)O)[C@H](NC(=O)[C@@H]1CCCN1)C(=O)N1CCC[C@H]1C(=O)N1CCC[C@H]1C(=O)NCC(=O)N[C@@H](COP(=O)(O)O)C(=O)N[C@@H](Cc1c[nH]cn1)C(=O)O [DISC1^197–203/pT198/pS202] (H-P[pT]PPG[pS]H-OH)
Skp1-FBXW7 complex; ITC, 25 °C
  Kd: 17 ± 2 µM

## C[C@@H]1C[C@@H]([C@H](O)CC2CC(=O)NC(=O)C2)C(=O)[C@@H](C)C1 [cycloheximide, reference compound]
DISC1, HEK293 cells
  endogenous DISC1 level after cycloheximide: rapidly decreased

## DISC1 peptide (residues 197-203, phosphorylated at Thr198 and Ser202) P197G; pT198d (D-Asp); pS202mE (N-methyl Glu)
[1]
  percent of parent: 250 % of control

## DISC1 peptide (residues 197-203, phosphorylated at Thr198 and Ser202) pT198E; pS202d (D-Asp)
[1]
  percent of parent: 210 % of control

## DISC1 peptide (residues 197-203, phosphorylated at Thr198 and Ser202) pT198E; pS202mD (N-methyl Asp)
[1]
  percent of parent: 230 % of control

## DISC1 peptide (residues 197-203, phosphorylated at Thr198 and Ser202) pT198d (D-Asp); pS202mE (N-methyl Glu)
[1]
  percent of parent: 220 % of control and 190 % of control

## DISC1 peptide (residues 197-203, phosphorylated at Thr198 and Ser202) pT198e (D-Glu); pS202mE (N-methyl Glu)
[1]
  percent of parent: 210 % of control and 280 % of control

## DISC1^193–207/pS202: singly phosphorylated DISC1 peptide (PEVPPTPPG[pS]HSAFT)
Skp1-FBXW7 complex; [5]
  measurable enthalpy signal / ITC signal: neither of the singly phosphorylated DISC1^193–207/pT198 and DISC1^193–207/pS202 peptides gave a measurable enthalpy signal
Skp1-FBXW7 complex; ITC, 25 °C, pH 7.4; singly phosphorylated peptides; pS202)
  measurable enthalpy signal / ITC signal: No ITC signal

## DISC1^193–207/pT198: singly phosphorylated DISC1 peptide (PEVPP[pT]PPGSHSAFT)
Skp1-FBXW7 complex; [5]
  measurable enthalpy signal / ITC signal: neither of the singly phosphorylated DISC1^193–207/pT198 and DISC1^193–207/pS202 peptides gave a measurable enthalpy signal
Skp1-FBXW7 complex; ITC, 25 °C, pH 7.4; singly phosphorylated peptides; pT198)
  measurable enthalpy signal / ITC signal: No ITC signal

## GmDPPGmEH [I14, substituted DISC1 PD core peptide GmDPPGmEH]
[2]
  binding potential for the FBXW7 complex vs dually-phosphorylated control sequence: more than a twofold increase in binding potential

## GmEPPGmEH [I11, substituted DISC1 PD core peptide GmEPPGmEH]
[2]
  binding potential for the FBXW7 complex vs dually-phosphorylated control sequence: more than a twofold increase in binding potential

## PTPPGSH
[2]; phosphorylation and truncation analysis
  association of FBXW7 complex / core binding sequence: minimum core binding sequence within the PD domain

B1: DISC1 peptide (residues 193-207, phosphorylated at Thr198 and Ser202) (peptide, UniProt Q9NRI5 193-207, looked up)
peptide: PEVPP[pT]PPG[pS]HSAFT
notes: printed residues: Pro193, Glu194, Val195, Pro196, Pro197, Thr198, Pro199, Pro200, Gly201, Ser202, His203; also called 15-residue core peptide; source: synthetic peptide, purified by HPLC
[3]
  binding result: binds
[4]
  Kd: 1 µM

## P[pT]PPG[pS]H [DISC1 peptide (residues 197-203, phosphorylated at Thr198 and Ser202)]
[4]
  Kd: 17 µM
